Measured values as given in the DeepSol protein solubility set.

Experiment: soluble on expression in E. coli; label from the status in PepcDB or PDB records

Row | Sequence | soluble on expression in E. coli
1 | MNIEEFTSGLAEKGISLSPRQLEQFELYYDMLVEWNEKINLTSITEKKEVYLKHFYDSITAAFYVDFNQVNTICDVGAGAGFPSLPIKICFPHLHVTIVDSLNKRITFLEKLSEALQLENTTFCHDRAETFGQRKDVRESYDIVTARAVARLSVLSELCLPLVKKNGLFVALKAASAEEELNAGKKAITTLGGELENIHSFKLPIEESDRNIMVIRKIKNTPKKYPRKPGTPNKSPIEG | soluble
2 | MNIELLQQLCEASAVSGDEQEVRDILINTLEPCVNEITFDGLGSFVARKGNKGPKVAVVGHMDEVGFMVTHIDESGFLRFTTIGGWWNQSMLNHRVTIRTHKGVKIPGVIGSVAPHALTEKQKQQPLSFDEMFIDIGANSREEVEKRGVEIGNFISPEANFACWGEDKVVGKALDNRIGCAMMAELLQTVNNPEITLYGVGSVEEEVGLRGAQTSAEHIKPDVVIVLDTAVAGDVPGIDNIKYPLKLGQGPGLMLFDKRYFPNQKLVAALKSCAAHNDLPLQFSTMKTGATDGGRYNVMGGGRPVVALCLPTRYLHANSGMISKADYEALLTLIRGFLTTLTAEKVNAFSQFRQVD | not soluble
3 | MNIKSLQLFIHLCESKSFAKTAAAMHISPSALSRQIQKLEEETNQQLFVRDNRSVELTTQGKKLMPVALKILSEWQQYQNHIKGTEGELKGEIRLFCSVTASYSHLPELISDFRLQHPFIEFKLSTGDPAQAIDKILADEADIAISAKSEQMPNKIAFET | not soluble
4 | MNINKKVTLQRIQTLTELHGAPGFEEEVKNYMTQQMAPYVDEFIENRMGGFFGVKKSKNPNAKRVMIAAHMDEIGFMITNITKNGMIQFTNLGGVANDIWQGQRLVIKNRNGDKIIGVVSNIPKHFRTGSEGAPEIKDLTLDIGAQNEDEVRERGIDIGDTIVPHTPFTQLSEHRYSAKAWDNRYGCVLAIEILELLKDIELDVDLYVGANVQEEVGLRGAKASAEMIDPDVAFVVDCSPANDVKGNQPLSGELGKGTLIRIKDGTMILKPVFRDYLLKLVEAHDIEHQYYMSPGGTDGGEIHKANIGIPTAVIGVCARYIHSTDSVFDIRDYFAARSLLSEAICNLDNNQIETLQYK | not soluble
5 | MNIQNPVLKGFNPDPSIVRAGDDYYIATSTFEWFPGVQIHHSKDLVHWHLVAHPLSTTEFLDMKGNPDSGGIWAPDLSYADGKFWLIYTDVKVVDGMWKDCHNYLTTAEDIKGPWSKPILLNGAGFDASLFHDPSGKKYLVNMYWDQRVYHHNFYGIALQEYSVAEEKLIGKPEIIYKGTDIAYTEGPHLYYINDMYYLMTAEGGTTYQHSETIARSKTIHGPYEIQPDYPLLSAWKEVHNPLQKCGHASLVETQNGQWYLAHLTGRPLPAPAGFPSREREQHAFCPLGRETAIQKIEWQDGWPVVVGGQQGSLEVEAPDLPQQEWAPTYEERDDFDKDTLNINFQTLRIPFSEHLGSLTARPGFLRLYGRESLQSKFTQAHIARRWQSFNFDAGTSVEFSPNSFQQMAGLTCYYNTENWSSIHVTWNEEKGRIIDLVTADNGTFSMPLAGAEIPIPDEVKTVHFKVSVRGRIYQYAYSFDGETFHTLPIELPSWKLSDDYVRGGGFFTGAFVGINAIDITGTALPADFDYFTYKELD | soluble
6 | MNITFKFNFMSYKHYFSPKHKPEITQAITITEPAIIFRLNKTYSTNLSQQEIYDITRSDWILGHRREKAEYGFAAFKGVVLQVYRIDRWDFSGKVTDVGRQRWFFEGKVATEMQDYINGNISHYFKKGDRSPTKYLNCLEHHHHHH | not soluble
7 | MNITQAAEQAIRLWFNTPDPMQRLHMAKTIRTWIRQDKFAQVDQANMPNCVQQILNIIYDGLKPQPVQLPISYYAQLWYNLLDILRRFTFLPIISPYIHQVVQMFCPRENGPQDFRELICNLISLNWQKDPHMKHCANQVFQIFNCIIMGVKNEKLRTEFAQHLKFEKLVGTLSEYFNPQVHPGMINPAIFIIFRFIISKDTRLKDYFIWNNNPHDQPPPPTGLIIKLNAVMIGSYRLIAGQNPETLPQNPELAHLIQVIIRTFDLLGLLLHDSDAIDGFVRSDGVGAITTVVQYPNNDLIRAGCKLLLQVSDAKALAKTPLENILPFLLRLIEIHPDDEVIYSGTGFLSNVVAHKQHVKDIAIRSNAIFLLHTIISKYPRLDELTDAPKRNRVCEIICNCLRTLNNFLMMWIPTPNGETKTAGPNEKQQVCKFIEIDILKKLMSCLSCEGMDTPGLLELRSTILRSFILLLRTPFVPKDGVLNVIDENRKENLIGHICAAYSWVFRQPNNTRTQSTKQQLVERTISLLLVLMEQCGAEKEVAQYSYSIDCPLNLLNGNQVKPTFIHNVLVVCDKILEHCPTRADIWTIDRPMLEGLTNHRNSDIAKAANSLLSRFPEN | soluble
8 | MNIVITGGTGLIGRHLIPRLLELGHQITVVTRNPQKASSVLGPRVTLWQGLADQSNLNGVDAVINLAGEPIADKRWTHKQKERLCQSRWNITQKLVDLINASDTPPSVLISGSATGYYGDLGEVVVTEEEPPHNEFTHKLCARWEEIACRAQSDKTRVCLLRTGVVLAPDGGILGKMLPPFRLGLGGPIGSGRQYLAWIHIDDMVNGILWLLDNELRGPFNMVSPYPVRNEQFAHALGHALHRPAILRVPTTAIRLLMGESSVLVLGGQRALPKRLEEAGFAFRWYDLEEALADVVR | not soluble
9 | MNKAINIKKTAPLEVLHSELPYTQDPTALFHALCAGRSDCLLLESAEIDSKQNLKSLLLVDAAVRIVCEGHQVTYHALSANGQALLNIIHSNLTDRIPCKVEKAKLTLTFSTPCDTLDEDSRLREASSFDALRLVQHSFDLTDHGKFALFLGGLFAYDLVANFEPLGEAPADNQCPDYVFYVAETLMVIDHQRETCQLQATQFQPGDALHSQLKSRMREIRAQVNQKLPLPSAQSLSDVEVTTNISDAAFCDIVRDLKQYVVKGDVFQVVPSRRFRLPCPSPLAAYQRLKQSNPSPYMFYMQDERFTLFGASPESALKYEMHTNQVEIYPIAGTRRRGKRADGSIDFDLDSRIELELRTDKKENAEHMMLVDLARNDVARISQAGTRHVADLLQVDRYSHVMHLVSRVVGQLREDLDALHAYQACMNMGTLTGAPKIRAMQLIRDVEQARRGSYGGAVGYLTGEGDLDTCIVIRSAYVENGIAQVQAGAGVVYDSDPQAEADETRGKAQAVISAILYAHQGKE | not soluble
10 | MNKAYYIGLMSGTSMDGVDAVLVDFAGEQPQLIGTHTETIPTHLLKGLQRLCLPGTDEINRLGRLDRSVGKLFALAVNNLLAKTKIAKDEIIAIGSHGQTVRHMPNLEVGFTLQIGDPNTIATETGIDVIADFRRKDIALGGQGAPLVPAFHQQTFAQVGKKRVILNIGGIANITYLPGNSEEVLGFDTGPGNTLIDAWVQQVKNESYDKNGAWAASGKTDPQLLAQLLSHPYFSLAYPKSTGRELFNQAWLEQQLSAFNQLNEEDIQSTLLDLTCHSIAQDILKLAQEGELFVCGGGAFNAELMQRLAALLPGYRIDTTSALGVDPKWAEGIAFAWLAMRYQLGLPANLPAVTGASREAILGGRFSAK | soluble
11 | MNKDLRPIIWNDSEKKLVLIDQRKLPNELVYFECKNYKDVCFAIKDMVVRGAPAIGVAAAYGMALAELNGEDMEKAYLELKKTRPTAVNLFWALEKIIAAKNSGKSLLDEAKLIHEEDIELCRKIGEIGEVLIDDFDTILTHCNAGALATSAYGTALSVIRFAHYNGKKINVLSDETRPRLQGAKLTCFELNYENIPVKAICDNTAGFMMSKGLVDKIIVGADRILSDYHVFNKIGTYSLAILAKYHNIPFYVAAPYSTFDFESKLEDIVIEERSESEVTHIDNVRIVAEGVSAYNFAFDCTPPELITGIITEKEIIYPNKLEHHHHHH | not soluble
12 | MNKELQPKVVFLMGPTASGKTALALELAEKHNCEIISVDSALIYRGMDIGSAKPSAEELARGPHRLIDIRDPSESYSAADFRADALSEIEQIISMGKTPLLVGGTMMYFKALLEGLSPLPSADEVIRADIQAEADANGWEALHDQLREIDPVSAERIHPNDPQRLSRALEVYRISGKSLTELTMTKSAPLPYNVVQFAIAPRERKVLHELIGQRFRIMLEQGFIDEVAQLKARDDLHLDLPSMRCVGYRQCWQYLDGEFDHDTMVEKAIAATRQLAKRQLTWLRSWPELNWLESGAEGNLVTLMRHCRLEHHHHHH | soluble
13 | MNKHSGIDFKQLNFLTKLNENHSGELWKGRWQGNDIVVKVLKVRDWSTRKSRDFNEECPRLRIFSHPNVLPVLGACQSPPAPHPTLITHWMPYGSLYNVLHEGTNFVVDQSQAVKFALDMARGMAFLHTLEPLIPRHALNSRSVMIDEDMTARISMADVKFSFQSPGRMYAPAWVAPEALQKKPEDTNRRSADMWSFAVLLWELVTREVPFADLSNMEIGMKVALEGLRPTIPPGISPHVSKLMKICMNEDPAKRPKFDMIVPILEKMQDK | soluble
14 | MNKKILIIDDNKMLGKLLAKKIQMTLDYEVDIAFGFAEAKELMNNDYFLAFVDLCLPDAPNGEVVDYVIEKKIPAIVLTASGDKATKEKFMDKDILDYIFKESETCIDEIISSIVKLNQYAKTKVIVAMSKLPERNEIKKILTQRQFNVLAAAHGEEAMSYLNDNNDVKLIIADVNMPVISGFELLTQVRERFSDDELGVILLGDHNDSFEANSFKNGVNEYLFKPLSKESFNCRLDRCLSYMDDKKFLSTYNVLDPVSGVKNYNALIDGIDDYFNEIATKDEEFAFAFLDIDNLQMINDEYGREVGDEVIKICANEIVNETKGRDLVGRYSAEKICILLKNISQERAIKIFSRIRVNIKKAGVLVNLDEVFFTASIGVVFGKSGDKIDSLADKASKILSQAKDNGKDRVEVCS | soluble
15 | MNKPVSSIPQSKEELELAINSIFDKLMADYRTIPVELTRERNVEGNIKGTQVSVCDTVAYLIGWGKLVLKWHRLKAQGLPVEFPESGFKWNQLGLLAEHFHEQYADWKYEALLKELESTVNELLSLISSLSNYDLYETTWYDKWTLGRMIQFNTSSPMKNMRSKVRRFKKNKGLLLEHHHHHH | soluble
16 | MNKRVQAFLAKMQEKELDGIIINNLKNVYYLTGFWGSNGTVFISRDRQVLVTDSRYIIAAKQETSGFEIVADRDELAVIAGIVKDMGLTRIGFEDEISVSYYHRMQAAFAGLNLLPQTQFVEGLRMIK | not soluble
17 | MNLDLQKVLPAEAFETEQNEGDYIGKDGLLYCGVCRTKKQTRLPASDFTGGREIIVPCICKCKVEENKRKEEEEKKRQEMQRLERLKASSLMDAKLKAARLDGYQVDGDNQKIYNLAGNYVKRFDEMYEKRQGLLFWGTVGTGKSYTAACIANELLNQMIPVVMTSFVKILQNIQGNPDEEERIMAGLNAAKLLIIDDLGAERSTDYALEKVYNIIDSRYLSGKPLILTTNMTLKDMQESEDIRYRRIYDRIFEMCFPVRFAGRSWREKAASKRFDAMKNLMEE | not soluble
18 | MNLIFPLFFFALLVGSNAQFQQFCNYCGFIEVPKTWPVAQDSLRSACETLGMATTACKGIINSADLNSSYGKMYPYII | not soluble
19 | MNLITDETLVEPNLPTFEELTRVHDRKYLKSVRNPIKAAQIVEIPFVGCLPPCIIESKLLHPLRLQAGGTVLAANLALKHGWAINVGGGFHHASHSGGGGFCFYADITMAIFDLFDKKAIANAIVVDLDAHQVLEKTFERI | not soluble
20 | MNLLERIKKLAKDRDVSIYQLEEEINIGRNTIYQWNKRTPSSDKLEAVANYFNVSVDYLLGRTENPNQAGAKPSDDLDDVLDNVMSFDGEPLDDHDREVIRAYLKGRFGK | not soluble
